Measurements: patent US20230090901A1 (GAMMADELTA THERAPEUTICS, published 2023)

B1: G4_12 (antibody, human IgG1, V domains shown)
VH: EVQLLESGGGLVQPGGSLRLSCAASGFTVSSNYMSWVRQAPGKGLEWVSVIYSGGSTYYADSVKGRFTISRHNSKNTLYLQMNSLRAEDTAVYYCARVANGDFLDYWGRGTLVTVSS
VL: SQSVLTQPASVSGSPGQSITISCTGTSSDVGGYNFVSWYQQHPGKAPKLMIYEVTNRPSGVPDRFSGSKSGNTASLTISGLQAEDEADYYCSSHASPRVFGTGTKVTVLG
notes: also called 1140_P01_G08; clone G4_12
B2: G4_20 (antibody, human IgG1, V domains shown)
VH: QVQLVESGAEVKKPGASVKVSCKASGGTFSSYAISWVRQAPGQGLEWMGGIIPIFGTANYAQKFQGRVTITVDKSTRTAYMELSSLRSKDTAVYYCARGNSRSDAFDIWGQGTMVTVSS
VL: SSYELTHPPSVSVSPGQTASITCSGDKLGDKFVSWYHQKPGQSPVLVIYQDSKRPSGIPERFSGSNSGNTATLTISGTRAMDEADYYCQAWDSSTVVFGGGTKLTVLG
notes: also called 1254_P02_G02; clone G4_20
B3: G4_18 (antibody, human IgG1, V domains shown)
VH: EVQLVESGAEVKKPGASVKVSCKASGYTFTGYYMHWVRQAPGQGLEWMGRINPNSGGTNYAQKFQGRVTMTRDASISTAYMELSRLRSDDTAVYYCARDLDLSSLDYWGRGTLVTVSS
VL: SSYELTQPPSVTESPGQTARITCSGDALAKQYAYWYQQKPGQAPVLVIYRDSERPSEIPERFSGSSSGTTVTLTISGVQAEDEADYYCQSADSSGTYTVFGGGTKLTVLG
notes: also called 1254_P01_H04; clone G4_18
B4: G4_27 (antibody, human IgG1, V domains shown)
VH: QVQLVQSGAEVKKPGESLKISCKSSGYSFTSYWIGWVRQMPGKGLEWMGIIYPGDSDTRYSPSFQGQVTFSADESISTAYLQWSSLKASDTAMYYCARHGAYGDYPDTFDIWGQGTLVTVSS
VL: SSYELTQDPAVSVALGQTVSITCQGDSLRNFYANWYQQKPGQAPVLVIYGKNNRPSGIPDRFSGSSSGNTASLTITGAQAEDEADYYCNSRDSSGNHLVFGGGTQLTVLG
notes: also called 1248_P02_C10; clone G4_27

Target: T1, Vγ4 chain-bearing γδ TCR on primary human Vγ4+ T cells (skin, PBMC, gut) (human)
T1 construct: Polyclonal natural receptors; only the germline Vγ4 region is common to them; also called primary Vγ4+ T cells; primary skin-derived Vγ4+ T cells
T1 sequence (main, as listed by the source): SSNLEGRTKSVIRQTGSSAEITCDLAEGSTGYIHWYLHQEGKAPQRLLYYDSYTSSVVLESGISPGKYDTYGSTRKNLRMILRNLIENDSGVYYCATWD
Assay: flow cytometry titration on skin-derived Vγ4+ T cells, left plot, anti-human IgG1 secondary
Experimental: Detection was performed by addition of a secondary, fluorescent dye-conjugated antibody against human IgG1 (IS11-12E4.23.20). Cells were then fixed and acquired on the MACSQuant16 flow cytometer. Cells were gated as single, live, IgG1 (Vγ4)⁺. Data shown are the median fluorescent intensity (MFI) of secondary detection antibody detected bound to Vγ4⁺ cells.

Which “EC50 (read off the curve)” value does the source give for B1 here?
The value was ~1 µg/mL.

For B2, which “EC50 (read off the curve)” value is on record?
The value was ~2 µg/mL.

Target: T2, L1 (DV1-GV4), soluble leucine zipper γδ TCR heterodimer of a delta variable 1 chain and a gamma variable 4 … (human)
T2 construct: also called bt-L1; not shown: histidine tag/linker said to follow the zipper
T2 sequence (main, as listed by the source, chain 1 of 2): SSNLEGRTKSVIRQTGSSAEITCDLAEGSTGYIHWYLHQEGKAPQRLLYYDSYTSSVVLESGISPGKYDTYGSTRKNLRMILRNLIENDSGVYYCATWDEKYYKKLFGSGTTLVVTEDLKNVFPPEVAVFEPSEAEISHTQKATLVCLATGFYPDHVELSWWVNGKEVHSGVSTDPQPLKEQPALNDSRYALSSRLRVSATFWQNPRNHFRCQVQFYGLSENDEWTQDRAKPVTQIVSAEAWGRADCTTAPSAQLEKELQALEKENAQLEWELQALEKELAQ
T2 sequence (main, as listed by the source, chain 2 of 2): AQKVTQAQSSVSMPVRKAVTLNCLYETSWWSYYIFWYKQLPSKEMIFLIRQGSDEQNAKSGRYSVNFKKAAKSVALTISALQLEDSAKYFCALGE
Assay: SPR (Reichert 4SPR), L1 coupled to chip, IgG1 flowed, steady state 1:1 fit; average column (one experiment)

B3 was tested. Which Kd did it give?
The Kd was 19.9 nM.

With B4 as the binder, how does the Kd read?
The Kd was 261 nM.

Target: T3, BSA (bovine, UniProt P02769)
T3 construct: coated at 3 µg/ml; also called bovine serum albumin, control antigen of the DELFIA ELISA
T3 sequence (P02769 25-607 limits assumed): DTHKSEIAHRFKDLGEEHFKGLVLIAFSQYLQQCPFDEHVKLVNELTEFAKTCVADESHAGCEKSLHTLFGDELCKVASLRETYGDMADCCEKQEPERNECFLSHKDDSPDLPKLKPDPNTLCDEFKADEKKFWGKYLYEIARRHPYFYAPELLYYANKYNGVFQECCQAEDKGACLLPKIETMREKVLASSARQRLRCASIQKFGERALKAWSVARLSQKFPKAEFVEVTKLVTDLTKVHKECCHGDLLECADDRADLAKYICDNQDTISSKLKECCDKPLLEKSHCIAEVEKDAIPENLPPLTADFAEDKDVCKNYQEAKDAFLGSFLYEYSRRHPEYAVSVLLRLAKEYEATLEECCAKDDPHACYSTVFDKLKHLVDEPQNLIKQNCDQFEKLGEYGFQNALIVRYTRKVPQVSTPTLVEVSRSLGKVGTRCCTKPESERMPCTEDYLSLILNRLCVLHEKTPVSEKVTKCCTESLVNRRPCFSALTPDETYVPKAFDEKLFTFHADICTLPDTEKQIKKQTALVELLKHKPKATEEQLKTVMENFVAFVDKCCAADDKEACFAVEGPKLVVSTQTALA
Assay: DELFIA ELISA, coated antigen;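 also: binding of antibody supernatants or protein-A purified antibodies to plate-coated antigen (3 µg/ml recombinant TCR or BSA), 1 h incubation at room temperature, DELFIA readout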
Experimental: (§1) A DELFIA ELISA binding method was also employed to assess binding of antibody supernatants or further protein-A purified antibody. In brief, MaxiSorp plates were coated with 3 μg/ml of antigen BSA or L1 (DV1-GV4), L2 (DV1-GV2), L3 (DV1-GV8), or L4 (DV2-GV4) recombinant TCR antigen. Plates were then washed with PBS, blocked with PBS/skimmed milk and then test article added and incubated for 1 hour at room temperature.

How did the “DELFIA ELISA response (FU)” value turn out when B3 was run?
The value was 67 FU.

Does B3 bind?
Result: no binding

How did the “DELFIA ELISA response (FU)” value turn out when B1 was run?
Its value is 80 FU.

Does B1 bind?
Result: no binding

For B4, which “DELFIA ELISA response (FU)” value is on record?
The value was 40 FU.

Does B4 bind?
Result: no binding

How did the “DELFIA ELISA response (FU)” value turn out when B2 was run?
Its value is 132 FU.

Does B2 bind?
Result: no binding

Target: T2, L1 (DV1-GV4), soluble leucine zipper γδ …
Assay: DELFIA ELISA, coated antigen;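 also: binding of antibody supernatants or protein-A purified antibodies to plate-coated antigen (3 µg/ml recombinant TCR or BSA), 1 h incubation at room temperature, DELFIA readout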
Experimental: as §1

How did the “DELFIA ELISA response (FU)” value turn out when B3 was run?
The value was 197000 FU.

For B1, which “DELFIA ELISA response (FU)” value is on record?
Its value is 237000 FU.

Which “DELFIA ELISA response (FU)” value does the source give for B4 here?
The value was 138000 FU.

B2 was tested. Which “DELFIA ELISA response (FU)” value did it give?
The value was 184000 FU.

Target: L2 (DV1-GV2), soluble leucine zipper γδ TCR heterodimer of a delta variable 1 chain and a gamma variable 2 … (human)
Sequence (chain, as listed by the source mutant, chain 1 of 2): as the sequence (main, as listed by the source, chain 1 of 2) above, with T30N, L48Q, T54N, S56K, I63V, D69Y, G72A, K76N, M80L counted along it
Sequence (chain, as listed by the source mutant, chain 2 of 2): as the sequence (main, as listed by the source, chain 2 of 2) above
Assay: DELFIA ELISA, coated antigen;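 also: binding of antibody supernatants or protein-A purified antibodies to plate-coated antigen (3 µg/ml recombinant TCR or BSA), 1 h incubation at room temperature, DELFIA readout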
Experimental: as §1

For B3, which “DELFIA ELISA response (FU)” value is on record?
The value was 66 FU.

Which “DELFIA ELISA response (FU)” value does the source give for B1 here?
The value was 229 FU.

Which “DELFIA ELISA response (FU)” value does the source give for B4 here?
Its value is 579 FU.

For B2, which “DELFIA ELISA response (FU)” value is on record?
The value was 147 FU.

Target: L3 (DV1-GV8), soluble leucine zipper γδ TCR heterodimer of a delta variable 1 chain and a gamma variable 8 … (human)
Sequence (chain, as listed by the source mutant, chain 1 of 2): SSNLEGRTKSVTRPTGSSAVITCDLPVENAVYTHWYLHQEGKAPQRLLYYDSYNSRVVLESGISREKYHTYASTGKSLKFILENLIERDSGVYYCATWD
Sequence (chain, as listed by the source mutant, chain 2 of 2): as the sequence (main, as listed by the source, chain 2 of 2) above
Assay: DELFIA ELISA, coated antigen;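 also: binding of antibody supernatants or protein-A purified antibodies to plate-coated antigen (3 µg/ml recombinant TCR or BSA), 1 h incubation at room temperature, DELFIA readout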
Experimental: as §1

For B3, which “DELFIA ELISA response (FU)” value is on record?
Its value is 185 FU.

B1 was tested. Which “DELFIA ELISA response (FU)” value did it give?
Its value is 252 FU.

B4 was tested. Which “DELFIA ELISA response (FU)” value did it give?
Its value is 1690 FU.

With B2 as the binder, how does the “DELFIA ELISA response (FU)” value read?
The value was 239 FU.

Target: T2, L1 (DV1-GV4), soluble leucine zipper γδ …
Assay: SPR (Reichert 4SPR), L1 coupled to chip, IgG1 flowed, steady state 1:1 fit; experiment 2
Experimental: (§2) In brief, the binding affinity of the antibodies to target (i.e. the human Vγ4 chain of a γδ TCR) was established by SPR analysis using a Reichert 4SPR instrument (Reichert Technologies). […] All experiments were performed at room temperature, with the samples kept at 4° C. before flowing over the chip. Steady state fitting was determined according to Langmuir 1:1 binding using software TraceDrawer (Reichert Technologies).

For B3, which Kd is on record?
The Kd was 19.9 nM.

How did the Kd turn out when B1 was run?
The Kd was 20.2 nM.

With B2 as the binder, how does the Kd read?
The Kd was 62.1 nM.

Target: T2, L1 (DV1-GV4), soluble leucine zipper γδ …
Assay: SPR (Reichert 4SPR), L1 coupled to chip, IgG1 flowed, steady state 1:1 fit; average
Experimental: as §2

B1 was tested. Which Kd did it give?
Its Kd is 19 nM.

For B2, which Kd is on record?
The Kd was 52.5 nM.

Target: T2, L1 (DV1-GV4), soluble leucine zipper γδ …
Assay: SPR (Reichert 4SPR), L1 coupled to chip, IgG1 flowed, steady state 1:1 fit; experiment 1
Experimental: as §2

Which Kd does the source give for B1 here?
The Kd was 17.8 nM.

For B4, which Kd is on record?
Its Kd is 261 nM.

B2 was tested. Which Kd did it give?
Its Kd is 43 nM.
